Experimental data taken from article PMC3722283.

Molecular target: concanavalin A
Assay: SPR

Substance | Kd [µM]
Man3GlcNAc2-RNase (glycoprotein 3) (from UniProt P61823 27-150) (natural protein) | 2.5
bovine ribonuclease B (native, carrying Man5-9 N-glycans) (from UniProt P61823 27-150) (natural protein) | 1.2
monofluoro-Man3GlcNAc2 glycoform of RNase (glycoprotein 2) (from UniProt P61823 27-150) (natural protein) | 2.4
